Test results from the supplement of paper PMC7125110.
± gives the standard error. For some assays here: Variants at the floor of the assay were thinned out.

B1: glmS ribozyme (parent)
chain: AUAAAAGCGCCAGAACUACAGAAAUGUAGUUGACGAGGAGGAGGUUUAUCGAAUUUUCGGCGGAUGCCUCCAAA

Tests used:
Details in all cases: with glucosamine-6-phosphate
glucosamine-6-phosphate [1] = variants of: B1; test: kcat; higher = faster cleavage; RNA array
In short: (§1)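 On sequenced MiSeq chips, barcoded ribozyme variants were made in situ by E. coli RNA polymerase and followed at 37 °C through a hybridised Cy3 probe. Glucosamine-6-phosphate was flowed in at 40 μM to 10 mM in HEPES/KCl/Mg(OAc)2 buffer. Exponential fits to normalised per-tile medians gave kobs, and weighted Michaelis–Menten fits gave kcat and KM.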

glucosamine-6-phosphate [2] = variants of: B1; test: self-cleavage kobs at 640 uM GlcN6P; higher = faster cleavage; RNA array
In short: as §1

glucosamine-6-phosphate [3] = variants of: B1; test: self-cleavage kobs at 2500 uM GlcN6P; higher = faster cleavage; RNA array
In short: as §1

glucosamine-6-phosphate [4] = variants of: B1; test: self-cleavage kobs at 10000 uM GlcN6P; higher = faster cleavage; RNA array
In short: as §1

glucosamine-6-phosphate [5] = variants of: B1; test: self-cleavage kobs at 40 uM GlcN6P; higher = faster cleavage; RNA array
In short: as §1

glucosamine-6-phosphate [6] = variants of: B1; test: self-cleavage kobs at 160 uM GlcN6P; higher = faster cleavage; RNA array
In short: as §1

glucosamine-6-phosphate [7] = variants of: B1; test: KM; higher = weaker cofactor use; RNA array
In short: as §1

Variant	kcat (glucosamine-6-phosphate [1]) [s⁻¹]	self-cleavage kobs at 640 uM GlcN6P (glucosamine-6-phosphate [2]) [s⁻¹]	self-cleavage kobs at 2500 uM GlcN6P (glucosamine-6-phosphate [3]) [s⁻¹]	self-cleavage kobs at 10000 uM GlcN6P (glucosamine-6-phosphate [4]) [s⁻¹]	self-cleavage kobs at 40 uM GlcN6P (glucosamine-6-phosphate [5]) [s⁻¹]	self-cleavage kobs at 160 uM GlcN6P (glucosamine-6-phosphate [6]) [s⁻¹]	KM (glucosamine-6-phosphate [7]) [µM]
U47C U49C	< 1e-05	< 1e-05					
A12G A52G	3.09e-05 ± 1e-05		5.02e-05 ± 1.5e-05	2.49e-05 ± 8.8e-06			
G41U C70U	0.0009 ± 0.00017	0.000714 ± 0.00011	0.00131 ± 0.00021		0.000457 ± 3.9e-05	0.000709 ± 0.0001	
A12G G66U C67U	8.1e-05 ± 2.4e-06		4.93e-05 ± 2.1e-05		< 1e-05		1610 ± 110
C50U G59U	< 1e-05	< 1e-05		< 1e-05	< 1e-05		71.2 ± 32
U46A C67U	0.00326 ± 0.0007	0.000811 ± 0.00012	0.00173 ± 0.00027	0.00257 ± 0.00033	9.11e-05 ± 2.1e-05	0.000165 ± 2.9e-05	2370 ± 780
G32A U56A	0.000939 ± 0.0002	9.47e-05 ± 1.5e-05	0.000295 ± 4.3e-05	0.000619 ± 9.9e-05		4.57e-05 ± 1.5e-05	5360 ± 1600
A12G U30C	0.000109 ± 8.8e-06	2.84e-05 ± 1.3e-05	4.54e-05 ± 7.7e-06	8.29e-05 ± 5.8e-06			3180 ± 800
A12C C71G	0.000645 ± 0.00023	0.000264 ± 3e-05	0.000424 ± 7.3e-05	0.00109 ± 0.00015	4.39e-05 ± 8.5e-06	0.000153 ± 2.4e-05	
A15U G44A	3.69e-05 ± 5.2e-07			2.88e-05 ± 1.1e-05			2790 ± 140
G29U U30A	0.000337 ± 3.2e-05	8.73e-05 ± 1.5e-05	0.000198 ± 3.2e-05	0.000278 ± 4e-05			1900 ± 380
U30C A42G	0.000456 ± 7.6e-05	0.00012 ± 3.3e-05	0.000368 ± 9.6e-05	0.0004 ± 5.9e-05		7.93e-05 ± 2.8e-05	1310 ± 520
A15G G29C	0.00276 ± 0.00064	0.000327 ± 7.2e-05	0.00156 ± 0.00032	0.002 ± 0.00023	3.64e-05 ± 1.1e-05	0.000187 ± 5.3e-05	3540 ± 1400
G40U C67U	7.51e-05 ± 5.3e-06	2.67e-05 ± 8.3e-06	4.31e-05 ± 8.2e-06	6.64e-05 ± 6e-06	< 1e-05		1470 ± 410
C11U U46C	7.67e-05 ± 2e-05	3.45e-05 ± 1.3e-05	3.71e-05 ± 9.8e-06	6.92e-05 ± 1.1e-05	< 1e-05		
A53G G66U	0.00201 ± 0.0004	0.00056 ± 7.9e-05	0.00179 ± 0.00022	0.00154 ± 0.00019	4.34e-05 ± 8.5e-06	0.000168 ± 3.4e-05	1650 ± 540
C16U G41A	0.00129 ± 0.00064	0.000403 ± 7.6e-05	0.0011 ± 0.00019		6.97e-05 ± 1.2e-05	0.000153 ± 3.2e-05	
U46A U47A	0.00774 ± 0.0022	0.00159 ± 0.00033	0.00385 ± 0.00067	0.00631 ± 0.0017	0.000207 ± 4.9e-05	0.000426 ± 6.1e-05	2510 ± 920
G66U C71U	0.00186 ± 0.00045	0.000471 ± 4.1e-05	0.00174 ± 0.00026	0.0014 ± 0.00014	3.7e-05 ± 8.7e-06	0.000107 ± 1.4e-05	2150 ± 760
G40U C71G	0.00552 ± 0.00087	0.00193 ± 0.00025	0.00351 ± 0.00048	0.00519 ± 0.00058	0.000211 ± 2.1e-05	0.000498 ± 8.3e-05	1200 ± 280
U30A U49G	0.000169 ± 3.4e-05		7.22e-05 ± 1.2e-05	0.000119 ± 2.1e-05			3780 ± 1600
U49G U55A	0.00113 ± 0.0001	0.000213 ± 2.8e-05	0.000539 ± 5.5e-05	0.000891 ± 0.00013		6.19e-05 ± 9.7e-06	2740 ± 370
A48U G66A	0.000466 ± 2.8e-05		0.000123 ± 2.3e-05	0.00027 ± 4.1e-05			7160 ± 740
A14U G51U	< 1e-05	< 1e-05		< 1e-05	< 1e-05		
U46C U47G	0.0024 ± 0.00028	0.000457 ± 8e-05	0.0014 ± 0.00026	0.00183 ± 0.00026	3.18e-05 ± 8e-06	0.00015 ± 2.6e-05	2600 ± 440
A36G U55C	1.01e-05 ± 4e-06						
U30C A39C	0.000139 ± 1.1e-05		5.33e-05 ± 1e-05	9.75e-05 ± 9.4e-06			4210 ± 820
A15C U55G	0.00196 ± 0.00085		0.00118 ± 0.0002	0.00334 ± 0.00064	0.000128 ± 3e-05	0.000255 ± 4.7e-05	
A53G U55G	0.0437 ± 0.021	0.00936 ± 0.0021	0.0152 ± 0.0045	0.0622 ± 0.015	0.0007 ± 8.8e-05	0.00323 ± 0.0008	
